Measured values: patent publication US20140294819A1 (NVIP, published 2014)

Columns and labels:
[1] = molecular target: T1, human CD20 cyclic (oxidised) peptide SEQ ID NO:3 (human, disulphide bond between the two cysteine residues; biotinylated); experiment: ELISA, purified antibody on cyclic CD20 peptide
T1 construct: also called H20; human CD20 cyclic peptide
T1 peptide: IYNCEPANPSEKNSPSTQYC
Experimental: (§1) The purified antibodies shown in FIG. 15 were tested for binding to cyclic CD20 peptides from different species by ELISA as above.

[2] = molecular target: T2, murine CD20 cyclic (oxidised) peptide SEQ ID NO:6 (murine, disulphide bond between the two cysteine residues; biotinylated); experiment: ELISA, purified antibody on cyclic CD20 peptide
T2 construct: also called M20; mouse CD20 peptide
T2 peptide: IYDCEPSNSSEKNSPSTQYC
Experimental: as §1

[3] = molecular target: T3, feline CD20 cyclised peptide SEQ ID NO:4 (feline, cyclised by a disulphide bond between the two cysteine residues); experiment: ELISA, purified antibody on cyclic CD20 peptide
T3 construct: also called feline CD20 peptide
T3 peptide: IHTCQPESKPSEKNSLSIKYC
Experimental: as §1

[4] = molecular target: T4, canine CD20 cyclic (oxidised, disulphide-bonded) peptide SEQ ID NO:2 (canine, disulphide bond between the two cysteine residues (corresponding to positions 167 and 183); N-terminal biotin in the streptavidin-plate assays); experiment: ELISA, purified antibody on cyclic CD20 peptide
T4 construct: Chemically synthesised and oxidised; also called C20; caCD20 peptide
T4 peptide: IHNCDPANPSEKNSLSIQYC
Experimental: as §1

[5] = molecular target: T1, human CD20 cyclic (oxidised) peptide …; experiment: ELISA on cyclised CD20 peptide
[6] = molecular target: T2, murine CD20 cyclic (oxidised) peptide …; experiment: ELISA on cyclised CD20 peptide
[7] = molecular target: T3, feline CD20 cyclised peptide SEQ ID NO:4; experiment: ELISA on cyclised CD20 peptide

Measured: binding result

B1: caninised RA2, HCB isotype (antibody)
heavy: EVQLVQSGGGLVKPTESLTISCVVSGFSLTNYGVHWVRQSPGKGLEWLGVIWSGGTTDYNAAFISRLSISKDNSKSTVFLRMNSLRADDTAIYYCARGPRKFYYYGMDYWGQGTSVTVSSASTTAPSVFPLAPSCGSTSGSTVALACLVSGYFPEPVTVSWNSGSLTSGVHTFPSVLQSSGLYSLSSMVTVPSSRWPSETFTCNVAHPASKTKVDKPVPKRENGRVPRPPDCPKCPAPEMLGGPSVFIFPPKPKDTLLIARTPEVTCVVVDLDPEDPEVQISWFVDGKQMQTAKTQPREEQFNGTYRVVSVLPIGHQDWLKGKQFTCKVNNKALPSPIERTISKARGQAHQPSVYVLPPSREELSKNTVSLTCLIKDFFPPDIDVEWQSNGQQEPESKYRTTPPQLDEDGSYFLYSKLSVDKSRWQRGDTFICAVMHEALHNHYTQESLSHSPGK
light: DIVMTQTPLSLSVSQEEEASISCRSSQSIVHSNGNTYLEWYLQKPGQSPKLLIYKVSNRFSGVPDRFSGSGSGTDFTLKISRVEAGDAGVYYCFQGLHVPLTFGAGTKLELKRNDAQPAVYLFQPSPDQLHTGSASVVCLLNSFYPKDINVKWKVDGVIQDTGIQESVTEQDKDSTYSLSSTLTMSSTEYLSHELYSCEITHKSLPSTLIKSFQRSECQRVD
notes: also called caRA2-B
binds: [1] | [2] | [3] | [4]

B2: caninised RF2, HCB isotype (antibody)
heavy: EVQLVQSGGGLVKPTESLTISCVISGFSLTSYGVHWVRQSPGKGLEWLGVIWSGGSIDYNAAFISRLSISKDNSKSTVFIRMNSLRADDTAIYYCARGPRKFYYFGMDYWGQGTSVTVSSASTTAPSVFPLAPSCGSTSGSTVALACLVSGYFPEPVTVSWNSGSLTSGVHTFPSVLQSSGLYSLSSMVTVPSSRWPSETFTCNVAHPASKTKVDKPVPKRENGRVPRPPDCPKCPAPEMLGGPSVFIFPPKPKDTLLIARTPEVTCVVVDLDPEDPEVQISWFVDGKQMQTAKTQPREEQFNGTYRVVSVLPIGHQDWLKGKQFTCKVNNKALPSPIERTISKARGQAHQPSVYVLPPSREELSKNTVSLTCLIKDFFPPDIDVEWQSNGQQEPESKYRTTPPQLDEDGSYFLYSKLSVDKSRWQRGDTFICAVMHEALHNHYTQESLSHSPGK
light: DIVMTQTPLSLSVSQEEEASISCRSSQNIVHSNGNTYVEWYLQKPGQSPKLLIYKVSNRFSGVPDRFSGSGSGTDFTLKISRVEAEDAGVYYCFQGSHVPLTFGAGTKLELKRNDAQPAVYLFQPSPDQLHTGSASVVCLLNSFYPKDINVKWKVDGVIQDTGIQESVTEQDKDSTYSLSSTLTMSSTEYLSHELYSCEITHKSLPSTLIKSFQRSECQRVD
notes: also called caRF2-B
binds: [5] | [6] | [7] | [4]

B3: caninised RA2, HCC isotype (antibody)
heavy: EVQLVQSGGGLVKPTESLTISCVVSGFSLTNYGVHWVRQSPGKGLEWLGVIWSGGTTDYNAAFISRLSISKDNSKSTVFLRMNSLRADDTAIYYCARGPRKFYYYGMDYWGQGTSVTVSSASTTAPSVFPLAPSCGSQSGSTVALACLVSGYIPEPVTVSWNSVSLTSGVHTFPSVLQSSGLYSLSSMVTVPSSRWPSETFTCNVAHPATNTKVDKPVAKECECKCNCNNCPCPGCGLLGGPSVFIFPPKPKDILVTARTPTVTCVVVDLDPENPEVQISWFVDSKQVQTANTQPREEQSNGTYRVVSVLPIGHQDWLSGKQFKCKVNNKALPSPIEEIISKTPGQAHQPNVYVLPPSRDEMSKNTVTLTCLVKDFFPPEIDVEWQSNGQQEPESKYRMTPPQLDEDGSYFLYSKLSVDKSRWQRGDTFICAVMHEALHNHYTQISLSHSPGK
light: DIVMTQTPLSLSVSQEEEASISCRSSQSIVHSNGNTYLEWYLQKPGQSPKLLIYKVSNRFSGVPDRFSGSGSGTDFTLKISRVEAGDAGVYYCFQGLHVPLTFGAGTKLELKRNDAQPAVYLFQPSPDQLHTGSASVVCLLNSFYPKDINVKWKVDGVIQDTGIQESVTEQDKDSTYSLSSTLTMSSTEYLSHELYSCEITHKSLPSTLIKSFQRSECQRVD
notes: See note of m19; also called caRA2-C
binds: [1] | [2] | [3] | [4]

B4: chimeric mouse-canine RA2, HCB isotype (antibody)
heavy: QVQLKQSGPGLVPPSQSLSITCTVSGFSLTNYGVHWVRQSPGKGLEWLGVIWSGGTTDYNAAFISRLSISKDNSKSQVFFKMNSLQADDTAIYYCARGPRKFYYYGMDYWGQGTSVTVSSASTTAPSVFPLAPSCGSTSGSTVALACLVSGYFPEPVTVSWNSGSLTSGVHTFPSVLQSSGLYSLSSMVTVPSSRWPSETFTCNVAHPASKTKVDKPVPKRENGRVPRPPDCPKCPAPEMLGGPSVFIFPPKPKDTLLIARTPEVTCVVVDLDPEDPEVQISWFVDGKQMQTAKTQPREEQFNGTYRVVSVLPIGHQDWLKGKQFTCKVNNKALPSPIERTISKARGQAHQPSVYVLPPSREELSKNTVSLTCLIKDFFPPDIDVEWQSNGQQEPESKYRTTPPQLDEDGSYFLYSKLSVDKSRWQRGDTFICAVMHEALHNHYTQESLSHSPGK
light: DVLMTQTPLSLPVSLGDQASISCRSSQSIVHSNGNTYLEWYLQKPGQSPKLLIYKVSNRFSGVPDRFSGSGSGTDFTLKISRVEAGDLGVYYCFQGLHVPLTFGAGTRLELKRNDAQPAVYLFQPSPDQLHTGSASVVCLLNSFYPKDINVKWKVDGVIQDTGIQESVTEQDKDSTYSLSSTLTMSSTEYLSHELYSCEITHKSLPSTLIKSFQRSECQRVD
notes: also called chiRA2-B; chimeric RA2
binds: [1] | [2] | [3] | [4]

B5: chimeric mouse-canine RF2, HCB isotype (antibody)
heavy: QVQLKQSGPGLVPPSQSLSITCTISGFSLTSYGVHWVRQSPGWGLEWLGVIWSGGSIDYNAAFISRLSISKDNSKSQVFIKMNSLQADDTAIYYCARGPRKFYYFGMDYWGQGTSVTVSSASTTAPSVFPLAPSCGSTSGSTVALACLVSGYFPEPVTVSWNSGSLTSGVHTFPSVLQSSGLYSLSSMVTVPSSRWPSETFTCNVAHPASKTKVDKPVPKRENGRVPRPPDCPKCPAPEMLGGPSVFIFPPKPKDTLLIARTPEVTCVVVDLDPEDPEVQISWFVDGKQMQTAKTQPREEQFNGTYRVVSVLPIGHQDWLKGKQFTCKVNNKALPSPIERTISKARGQAHQPSVYVLPPSREELSKNTVSLTCLIKDFFPPDIDVEWQSNGQQEPESKYRTTPPQLDEDGSYFLYSKLSVDKSRWQRGDTFICAVMHEALHNHYTQESLSHSPGK
light: DVVMTQTPLSLPVSLGDQASISCRSSQNIVHSNGNTYVEWYLQKPGQSPKLLIYKVSNRFSGVPDRFSGSGSGTDFTLKISRVEAEDLGVYYCFQGSHVPLTFGAGTKLELKRNDAQPAVYLFQPSPDQLHTGSASVVCLLNSFYPKDINVKWKVDGVIQDTGIQESVTEQDKDSTYSLSSTLTMSSTEYLSHELYSCEITHKSLPSTLIKSFQRSECQRVD
notes: also called chiRF2-B; chimeric RF2
binds: [1] | [2] | [3] | [4]
